Molecular target: Cluster of differentiation 99 (CD99) (Homo sapiens (Human)., UniProt P14209)
Assay: cell-based or functional assay

Chain of Cluster of differentiation 99 (CD99) (P14209 23-185): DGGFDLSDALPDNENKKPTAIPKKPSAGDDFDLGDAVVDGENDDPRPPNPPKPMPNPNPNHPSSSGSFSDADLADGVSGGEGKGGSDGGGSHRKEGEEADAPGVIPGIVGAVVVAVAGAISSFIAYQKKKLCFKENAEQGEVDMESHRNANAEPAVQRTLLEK

B1: CD99-A192 (α-CD99 scFv fused to the amino-terminus of the elastin-like polypeptide A192) (scFv, V domains shown)
VH: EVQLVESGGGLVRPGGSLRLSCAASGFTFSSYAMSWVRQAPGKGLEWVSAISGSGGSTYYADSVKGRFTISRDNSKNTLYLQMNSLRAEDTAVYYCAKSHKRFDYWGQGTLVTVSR
VL: SSELTQDPAVSVALGQTVRITCQGDSLRSYYASWYQQKPGQAPVLVIYGKNNRPSGIPDRFSGSSSGNTASLTITGAQAEDEADYYCNSSFPRTSSVVFGGGTKLTVL
  IC50 of cell viability (CCK-8) of MV4-11 cells, 72 hours: 400 nM
  phospho-SRC in MV4-11 cells at 24 hours (western blot), 25 μmol/L CD99-A192 vs. A192: 11 fold

— PMC11305399, “FLT3/CD99 Bispecific Antibody–Based Nanoparticles for Acute Myeloid Leukemia” (Cancer Research Communications, 2024)
